Test [1] addresses T1, Rpt5 C-domain (UniProt P33297 350-434).
T1 chain: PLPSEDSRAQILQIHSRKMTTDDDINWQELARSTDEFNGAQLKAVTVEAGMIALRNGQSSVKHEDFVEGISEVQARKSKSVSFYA
Description: BLI.

Test [2] concerns the target T1, Rpt5 C-domain. Description: BLI.

B1: Nas2ND (domain or fragment)
chain: NDLNHLLQRSHVLLNQHFDNMNVKSNQDARRNNDDQAIQYTIPFAFISEVVPGSPSDKADIKVDDKLISIGNVHAANHSKLQNIQMVVMKNEDRPLPVLLLREGQILKTSLTPSRNWNGRGLLGCRIQEL
In turn, B1 came in with a Kd with Rpt5 C-domain [1] of 3.4 µM. In the test with Rpt5 C-domain [2], this molecule had a koff of 0.26 s⁻¹.

B2: Nas2 (natural protein)
chain: MEEEELSKLLANVKIDPSLTSRISQIDSFKLSELMVLKTDIETQLEAYFSVLEQQGIGMDSALVTPDGYPRSDVDVLQVTMIRKNVNMLKNDLNHLLQRSHVLLNQHFDNMNVKSNQDARRNNDDQAIQYTIPFAFISEVVPGSPSDKADIKVDDKLISIGNVHAANHSKLQNIQMVVMKNEDRPLPVLLLREGQILKTSLTPSRNWNGRGLLGCRIQEL
As for B2, the Kd with Rpt5 C-domain [1] came out at 1.4 µM. Besides, the koff with Rpt5 C-domain [2] was 0.013 s⁻¹.

B3: Nas2LND (domain or fragment)
chain: GPLTRRASVGSQAIQYTIPFAFISEVVPGSPSDKADIKVDDKLISIGNVHAANHSKLQNIQMVVMKNEDRPLPVLLLREGQILKTSLTPSRNWNGRGLLGCRIQEL
B3 yielded a Kd with Rpt5 C-domain [1] of 8.5 µM. The same molecule gave a koff with Rpt5 C-domain [2] of 0.39 s⁻¹.

The term Kd denotes the constant that tells how readily two partners part at equilibrium. A low value points to tighter binding. For orientation: koff means the rate constant with which the complex falls apart.
